{"source": "patent US20080280824A1", "about": "“COMPOSITIONS AND METHODS FOR TREATMENT OF CANCER OR NEURODEGENERATIVE DISEASE WITH PEPTIDE BASED MICROTUBULE STABILIZERS OR INHIBITORS” (University of Washington, priority 2007, published 2008)", "key": {"[1]": {"molecular_target": "T1, Bovine brain tubulin (Bos taurus, UniProt P81947+Q6B856)", "T1 construct": "Bovine brain tubulin was dissolved to 200 μM; purchased Cytoskeleton; Denver, Colo; host or cells: bovine brain", "T1 sequence (P81947 whole entry)": "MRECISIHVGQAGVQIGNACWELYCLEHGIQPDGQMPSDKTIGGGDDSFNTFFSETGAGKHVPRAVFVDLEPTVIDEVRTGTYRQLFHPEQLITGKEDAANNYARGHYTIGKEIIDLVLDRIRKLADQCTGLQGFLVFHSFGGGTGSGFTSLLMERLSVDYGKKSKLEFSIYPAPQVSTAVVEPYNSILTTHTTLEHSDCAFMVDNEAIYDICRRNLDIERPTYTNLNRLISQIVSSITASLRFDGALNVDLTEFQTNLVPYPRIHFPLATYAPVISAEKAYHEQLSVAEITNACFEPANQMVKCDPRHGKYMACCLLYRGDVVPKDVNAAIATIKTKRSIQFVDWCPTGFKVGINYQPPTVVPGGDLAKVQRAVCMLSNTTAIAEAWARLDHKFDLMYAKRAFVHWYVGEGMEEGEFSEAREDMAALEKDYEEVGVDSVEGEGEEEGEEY", "T1 sequence (Q6B856 whole entry)": "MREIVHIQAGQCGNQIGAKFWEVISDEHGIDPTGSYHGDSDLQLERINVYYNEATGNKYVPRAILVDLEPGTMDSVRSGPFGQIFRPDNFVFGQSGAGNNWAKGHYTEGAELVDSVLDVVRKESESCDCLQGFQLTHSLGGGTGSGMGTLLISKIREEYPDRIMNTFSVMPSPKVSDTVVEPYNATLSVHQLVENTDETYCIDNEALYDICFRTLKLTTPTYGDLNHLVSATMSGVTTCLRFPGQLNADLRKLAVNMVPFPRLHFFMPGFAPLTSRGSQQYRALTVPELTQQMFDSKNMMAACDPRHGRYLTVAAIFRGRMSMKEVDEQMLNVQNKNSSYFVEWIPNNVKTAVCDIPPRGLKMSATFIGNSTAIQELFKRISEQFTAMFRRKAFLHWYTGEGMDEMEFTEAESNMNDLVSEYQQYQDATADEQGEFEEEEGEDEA", "experiment": "Microtubule assembly assay (DAPI fluorescence, Microtubule Stabilization/Destabilization Assay kit)", "type": "biochemical", "conditions": "for effect on total microtubule assembly / amount of microtubules formed in 45 minutes / effect on rate of microtubule assembly: peptide or control molecule, vs tubulin alone", "description": "Microtubule assembly assays. The effect of selected αB crystallin peptides on the in vitro assembly of tubulin into microtubules was evaluated using the Microtubule Stabilization/Destabilization Assay kit (Cytoskeleton; Denver, Colo.) as described previously. Bonne et al., J Biol Chem 260:2819-25, 1985. Bovine brain tubulin was dissolved to 200 μM in 80 mM PIPES, 2 mM MgCl2, 0.5 mM EGTA, 10 μM DAPI, 1 mM GTP pH 6.9. 8.5 μl of the tubulin was mixed with 40 μl of 80 mM PIPES, 2 mM MgCl2, 0.5 mM EGTA, 7.4 μM DAPI, 16% Glycerol, 1.1 mM GTP pH 6.9 and 4.3 μl of 2 mM peptide in 2.5% DMSO, 2 mM Paclitaxel (polymerization promoter) in 100% DMSO, 15 mM CaCl2 (polymerization inhibitor) in water, or 2.5% DMSO only. Microtubule assembly was monitored by measuring the fluorescence of DAPI, a molecule whose emission fluorescence at λ=460 is enhanced 8-fold when it is incorporated into assembled microtubules. Bonne et al., J Biol Chem 260:2819-25, 1985. Fluorescence of samples were continuously read on a Perkin Elmer Victor^3 V fluorescence plate reader (Excitation λ=355 nm, Emission λ=460 nm) at 37° C. for 45 minutes.\nThe effect of wt and three mutant αB crystallins, Δ41-58, αAβ8, and Δ155-165 on the in vitro assembly of tubulin into microtubules was evaluated using the Microtubule Stabilization/Destabilization Assay kit described above (Cytoskeleton; Denver, Colo.). Bovine brain tubulin was dissolved to 200 μM in 80 mM PIPES, 2 mM MgCl2, 0.5 mM EGTA, 10 μM DAPI, 1 mM GTP pH 6.9. 8.5 μl of the tubulin was mixed with 40 μl of 80 mM PIPES, 2 mM MgCl2, 0.5 mM EGTA, 7.4 μM DAPI, 16% Glycerol, 1.1 mM GTP pH 6.9 and 4.3 μl of 80 μM protein in 20 mM Tris-Cl, pH8.0 or Tris-Cl buffer only. Fluorescence of samples were continuously read on a Perkin Elmer Victor^3 V fluorescence plate reader (Excitation λ=355 nm, Emission λ=460 nm) at 37° C. for 45 minutes."}, "[2]": {"tested_on": "pre-formed microtubules", "experiment": "Microtubule disassembly assay (DAPI fluorescence)", "type": "biochemical, Bovine", "conditions": "23° C., 20 minutes; for effect on microtubule disassembly (words), vs absence of αB crystallin: wt or mutant αB crystallin (6.8 μM and 34 μM), 34 μM microtubules", "description": "Microtubule disassembly assays. The effect of αB crystallin peptides and mutants on the in vitro disassembly of microtubules into soluble tubulin was evaluated using the Microtubule Stabilization/Destabilization Assay kit described above (Cytoskeleton; Denver, Colo.) as described previously^36. 34 μM pre-formed microtubules were incubated with the αB crystallin peptides (170 μM) or wt and mutant αB crystallins (6.8 μM and 34 μM) at 23° C. for 20 minutes. Incubation of microtubules at 23° C. results in the spontaneous disassembly of microtubules. The decrease in DAPI fluorescence at λ=460 nm was measured continuously for 20 minutes by exciting the samples at λ=355 nm using a Perkin Elmer Victor^3 V fluorescence plate reader."}, "[3]": {"tested_on": "Bovine brain tubulin", "experiment": "Tubulin thermal aggregation assay (absorbance at 340 nm)", "type": "biochemical", "conditions": "52° C., 60 minutes; for effect on thermal aggregation of tubulin: synthetic peptide, 34 μM tubulin", "description": "Tubulin aggregation assays. The effect of αB crystallin peptides and mutants on the thermal aggregation of tubulin was evaluated using ultra-violet spectroscopy. Bovine brain tubulin was dissolved to 200 μM in 80 mM PIPES, 2 mM MgCl2, 0.5 mM EGTA, pH 6.9. 4.25 μl of 0.08, 0.4, or 2 mM test peptide or protein was diluted into 40 μl of 80 mM PIPES, 2 mM MgCl2, 0.5 mM EGTA, pH 6.9. 8.5 μl of the 200 μM tubulin was added to each sample. Samples were heated at 52° C. and the absorbance at λ=340 nm was measured continuously for 60 minutes using a Pharmacia Biotech Ultrospec 3000. GTP and glycerol were not present in the samples because they induce the assembly of microtubules."}, "[4]": {"conditions": "34 μM tubulin, 37° C., 45 minutes"}, "[5]": {"conditions": "peptide 170 μM, 34 μM pre-formed microtubules"}}, "note": "“Also recorded” adds a separate entry of the source.", "data": [{"compound": "LTITSSLSSDGV", "values": [{"measurement": "effect on total microtubule assembly / amount of microtubules formed in 45 minutes", "setting": "[1]; [4]", "value": "increased"}, {"measurement": "effect on total microtubule assembly / amount of microtubules formed in 45 minutes", "setting": "[1]; 34 μM tubulin, 37° C., 45 minutes, listed as 131LTITSSLSSDGV142", "value": "promote microtubule assembly"}, {"measurement": "effect on rate of microtubule assembly", "setting": "[1]; 34 μM tubulin, 37° C.", "value": "increased"}, {"measurement": "effect on microtubule disassembly", "setting": "[2]; [5]", "value": "no effect"}, {"measurement": "effect on microtubule disassembly", "setting": "[2]; peptide 170 μM, 34 μM pre-formed microtubules, listed as 131LTITSSLSSDGV142", "value": "inhibit microtubule disassembly"}, {"measurement": "effect on thermal aggregation of tubulin", "setting": "[3]", "value": "decreased"}, {"measurement": "effect on thermal aggregation of tubulin", "setting": "[3]; listed as 131LTITSSLSSDGV142", "value": "protected"}]}, {"compound": "wt αB crystallin: wild-type full-length human αB crystallin, small heat shock protein and molecular chaperone, expressed and purified", "values": [{"measurement": "effect on microtubule assembly (words)", "setting": "[1]; high αB crystallin concentrations, tubulin:αB crystallin ratios <1:4", "value": "inhibited"}, {"measurement": "effect on microtubule assembly (words)", "setting": "[1]; molar ratios of tubulin to αB crystallin <1:2", "value": "inhibited microtubule assembly"}, {"measurement": "effect on microtubule assembly (words)", "setting": "[1]; molar ratios of tubulin to αB crystallin between 4:1 and 1:2", "value": "favored the assembly of additional microtubules; also recorded: promoted"}, {"measurement": "microtubule assembly", "setting": "[1]; ratio of tubulin to αB crystallin 1:10", "value": "no microtubules were formed; also recorded: undetectable"}, {"measurement": "amount of microtubules formed less than tubulin alone", "setting": "[1]; ratio of tubulin to αB crystallin <1:2, 34 μM tubulin", "value": "30-63%"}, {"measurement": "effect on microtubule assembly (words)", "setting": "[1]; ratio of tubulin to αB crystallin >4:1", "value": "minimal"}, {"measurement": "effect on microtubule assembly (words)", "setting": "[1]; ratio of tubulin to αB crystallin >4:1, listed as αB crystallin", "value": "little or no effect"}, {"measurement": "microtubule assembly, normalized (absence of αB crystallin = 1.0)", "setting": "[1]; ratios <1.4, FIG. 5", "value": "< 1"}, {"measurement": "microtubule assembly, normalized (absence of αB crystallin = 1.0)", "setting": "[1]; ratios between 4:1 and 1.2, FIG. 5", "value": "> 1.0"}, {"measurement": "microtubule assembly, normalized (absence of αB crystallin = 1.0)", "setting": "[1]; tubulin to αB crystallin ratios >4:1, FIG. 5", "value": 1.0}, {"measurement": "effect on microtubule assembly, vs absence of αB crystallin", "setting": "[1]; wt or mutant αB crystallin protein, tubulin alone normalized to 1.0", "value": "increased"}, {"measurement": "increase of microtubule assembly", "setting": "[1]; αB crystallin protein (4.3 μl of 80 μM), 34 μM tubulin, 37° C., 45 minutes", "value": "~41", "unit": "%"}, {"measurement": "effect on microtubule disassembly (words), vs absence of αB crystallin", "setting": "[2]", "value": "unchanged"}, {"measurement": "effect on microtubule disassembly (words), vs absence of αB crystallin", "setting": "[2]; listed as Wt αB crystallin", "value": "no effect"}, {"measurement": "decrease of thermal aggregation of tubulin (protection)", "setting": "[3]; full-length αB crystallin protein", "value": 65, "unit": "%"}, {"measurement": "effect on tubulin aggregation, vs absence of αB crystallin", "setting": "[3]; wt or mutant αB crystallin protein", "value": "decreased"}]}, {"compound": "CC(=O)O[C@H]1C(=O)[C@@]2(C)[C@H]([C@H](OC(=O)c3ccccc3)[C@]3(O)C[C@H](OC(=O)[C@H](O)[C@@H](NC(=O)c4ccccc4)c4ccccc4)C(C)=C1C3(C)C)[C@]1(OC(C)=O)CO[C@@H]1C[C@@H]2O", "note": "[Paclitaxel, reference compound]", "values": [{"measurement": "effect on rate of microtubule assembly", "setting": "[1]; 34 μM tubulin, 37° C.", "value": "accelerated microtubule assembly"}]}, {"compound": "STSLSPFYLRPPSFLRAP", "values": [{"measurement": "delay of initiation of microtubule assembly relative to tubulin alone", "setting": "[1]; 34 μM tubulin, 37° C.", "value": "approximately 5 minutes"}, {"measurement": "effect on total microtubule assembly / amount of microtubules formed in 45 minutes", "setting": "[1]; [4]", "value": "no effect; also recorded: no change"}, {"measurement": "effect on total microtubule assembly / amount of microtubules formed in 45 minutes", "setting": "[1]; 34 μM tubulin, 37° C., 45 minutes, listed as 41STSLSPFYLRPPSFLRAP58", "value": "no effect; also recorded: little or no effect"}, {"measurement": "effect on rate of microtubule assembly", "setting": "[1]; 34 μM tubulin, 37° C.", "value": "slowed the rate of microtubule assembly"}, {"measurement": "effect on microtubule disassembly", "setting": "[2]; [5]", "value": "no effect"}, {"measurement": "effect on microtubule disassembly", "setting": "[2]; peptide 170 μM, 34 μM pre-formed microtubules, listed as 41STSLSPFYLRPPSFLRAP58", "value": "little or no effect"}, {"measurement": "effect on thermal aggregation of tubulin", "setting": "[3]", "value": "small protective effect"}]}, {"compound": "ERTIPITRE [synthetic peptide of human αB crystallin C-terminal extension, residues 156-164]", "values": [{"measurement": "effect on total microtubule assembly / amount of microtubules formed in 45 minutes", "setting": "[1]; [4]", "value": "increased"}, {"measurement": "effect on total microtubule assembly / amount of microtubules formed in 45 minutes", "setting": "[1]; 34 μM tubulin, 37° C., 45 minutes, listed as 155ERTIPITRE165", "value": "promote microtubule assembly"}, {"measurement": "effect on total microtubule assembly / amount of microtubules formed in 45 minutes", "setting": "[1]; 34 μM tubulin, 37° C., 45 minutes, listed as 156ERTIPITRE164", "value": "promote microtubule assembly"}, {"measurement": "effect on rate of microtubule assembly", "setting": "[1]; 34 μM tubulin, 37° C.", "value": "increased"}, {"measurement": "effect on microtubule disassembly", "setting": "[2]; [5]", "value": "decreased"}, {"measurement": "inhibition of microtubule disassembly", "setting": "[2]; [5]", "value": "~36", "unit": "%"}, {"measurement": "effect on microtubule disassembly", "setting": "[2]; peptide 170 μM, 34 μM pre-formed microtubules, listed as 156ERTIPITRE164", "value": "inhibit microtubule disassembly"}, {"measurement": "effect on thermal aggregation of tubulin", "setting": "[3]", "value": "decreased"}]}, {"compound": "[Ca+2].[Cl-].[Cl-]", "note": "[CaCl2, reference compound]", "values": [{"measurement": "effect on total microtubule assembly / amount of microtubules formed in 45 minutes", "setting": "[1]; [4]", "value": "inhibited microtubule assembly"}]}]}
